# Results reported in article PMC4835082.
# Tests used:
# factor X = factor X (UniProt P00742)
# factor Xa = factor Xa (UniProt P00742)
# Chain of daboxin P (C0HK16 whole entry): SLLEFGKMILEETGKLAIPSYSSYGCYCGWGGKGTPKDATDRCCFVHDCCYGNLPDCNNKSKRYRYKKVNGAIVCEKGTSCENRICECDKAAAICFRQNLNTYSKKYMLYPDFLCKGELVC
Substance,residual activity of ETC treated with alkylated daboxin P (3 uM) (factor X),residual activity of ITC treated with alkylated daboxin P (3 uM) (factor X),"IC50 of inhibition of FXa generation by the extrinsic tenase complex (ETC), in the presence of phospholipids, chromogenic substrate S-2222 (factor X)","IC50 of inhibition of FXa generation by the intrinsic tenase complex (ITC), in the presence of phospholipids, chromogenic substrate S-2222 (factor X)",residual activity of ETC (with phospholipids) upon treatment with 3 uM of daboxin P (factor X),"residual activity of ETC reconstituted without phospholipid, treated with daboxin P (factor X)",residual activity of ITC (with phospholipids) upon treatment with 3 uM of daboxin P (factor X),"residual activity of ITC reconstituted without phospholipid, treated with daboxin P (factor X)","residual activity of the prothrombinase complex (thrombin formation, S-2238) when daboxin P was pre-incubated with FXa followed by addition of FVa (factor Xa)"
alkylated daboxin P (enzyme),23%,19%,–,–,–,–,–,–,–
daboxin P (enzyme),–,–,0.43 nM,39.2 nM,9.05%,25%,2.8%,20.1%,11.3%
